According to patent CN113461822A:

B1: 抗体1 (实施例11; 2D6抗体) (antibody, human IgG1, kappa, V domains shown)
VH: EIQLVQSGSEVVRTGTSVKLSCKASGYRFTSYWMHWVKQRPGQGLEWIGNINPGDGRTNYDENFKNKATLTVDPSSNTAYMQLNSLTSEDSAVYYCTRDGNYGIFDYWGRGTSVTVSS
VL: NIVMTQSPSSLVVSAGEKVTLSCKSSQSLLYSSNQKNYLAWFQQKPGQSPKLLIYWASTRESGVPDRFTGSGSRTDFTLTISSVQAEDMAVYYCHQYIYLWSFGGGSKLEIER
B2: 抗体5 (实施例15) (antibody, human IgG1, kappa, V domains shown)
VH: EIQLVQSGSEVVRTGTSVKLSCKASGYRFTSYWMHWVKQRPGQGLEWIGNINPGDGRTNYDENFKNKATLTVDPSSNTAYMQLNSLTSEDSAVYYCTRDGNYGIFDYWGRGTSVTVSS
VL: DIELTQSPSSLVVSAGEKVTLSCKSSQSLLYSSNQKNYLAWFQQKPGQSPKLLIYWASTRGSGVPDRFTGSGSRTDFTLTISSVQAEDMAVYYCHQYIYLWSFGGGTKLEIKR
B3: 抗体4 (实施例14) (antibody, human IgG1, kappa, V domains shown)
VH: EVKLVESGGGLVQPGGSRKLSCAASGFTFSSYWMHWVRQAPEKGLEWVAYISSGGITIYYADTVKGRFTISRDNPENTLFLQMTSLTSEDTAIYYCARRAAYGNYDWYFDVWGAGTTVTVSS
VL: NIVMTQSPSSLVVSAGEKVTLSCKSSQSLLYSSNQKNYLAWFQQKPGQSPKLLIYWASTRESGVPDRFTGSGSRTDFTLTISSVQAEDMAVYYCHQYIYLWSFGGGSKLEIER
B4: 抗体6 (实施例16) (antibody, human IgG1, kappa, V domains shown)
VH: EVKLVESGGGLVQPGGSRKLSCAASGFTFSSYWMHWVRQAPEKGLEWVANINPGDGRTNYDENFKNRFTISRDNPENTLFLQMTSLTSEDTAIYYCARRAAYGNYDWYFDVWGAGTTVTVSS
VL: NIVMTQSPSSLVVSAGEKVTLSCKSSQSLLYSSNQKNYLAWFQQKPGQSPKLLIYWASTRESGVPDRFTGSGSRTDFTLTISSVQAEDMAVYYCHQYIYLWSFGGGSKLEIER

How the values were obtained:
[1] = biological target: Scl-70抗原 (人DNA拓扑异构酶I的C末端片段的70kD分子量蛋白) (human) (UniProt P11387); assay: chemiluminescence immunoassay on Scl-70-coated magnetic microspheres, ABEI-anti-human IgG; CHO supernatant diluted 150-fold
[2] = biological target: Scl-70抗原 (人DNA拓扑异构酶I的C末端片段的70kD分子量蛋白) (human) (UniProt P11387); assay: chemiluminescence immunoassay on Scl-70-coated magnetic microspheres, ABEI-anti-human IgG; CHO supernatant diluted 30-fold
[3] = biological target: Scl-70抗原 (人DNA拓扑异构酶I的C末端片段的70kD分子量蛋白) (human) (UniProt P11387); assay: chemiluminescence immunoassay on Scl-70-coated magnetic microspheres, ABEI-anti-human IgG; CHO supernatant diluted 50-fold
[4] = biological target: Scl-70抗原 (人DNA拓扑异构酶I的C末端片段的70kD分子量蛋白) (human) (UniProt P11387); assay: chemiluminescence immunoassay on Scl-70-coated magnetic microspheres, ABEI-anti-human IgG; CHO supernatant undiluted
[5] = biological target: Scl-70抗原 (人DNA拓扑异构酶I的C末端片段的70kD分子量蛋白) (human) (UniProt P11387); assay: chemiluminescence immunoassay on Scl-70-coated magnetic microspheres, ABEI-anti-human IgG; CHO supernatant diluted 200-fold
[6] = biological target: Scl-70抗原 (人DNA拓扑异构酶I的C末端片段的70kD分子量蛋白) (human) (UniProt P11387); assay: chemiluminescence immunoassay on Scl-70-coated magnetic microspheres, ABEI-anti-human IgG; CHO supernatant diluted 100-fold
[7] = biological target: Scl-70抗原 (人DNA拓扑异构酶I的C末端片段的70kD分子量蛋白) (human) (UniProt P11387); assay: chemiluminescence immunoassay on Scl-70-coated magnetic microspheres, ABEI-anti-human IgG; CHO supernatant diluted 10-fold

Binder | 稀释150倍RLU [1] | 稀释30倍RLU [2] | 稀释50倍RLU [3] | 原液RLU [4] | 稀释200倍RLU [5] | 稀释100倍RLU [6] | 稀释10倍RLU [7]
B1 | 73100 RLU | 355000 RLU | 220000 RLU | 1.64e+06 RLU | 55400 RLU | 140000 RLU | 1.01e+06 RLU
B2 | 89300 RLU | 421000 RLU | 239000 RLU | 2e+06 RLU | 59200 RLU | 129000 RLU | 1.31e+06 RLU
B3 | 124000 RLU | 609000 RLU | 379000 RLU | 2.46e+06 RLU | 85700 RLU | 171000 RLU | 1.74e+06 RLU
B4 | 57600 RLU | 329000 RLU | 177000 RLU | 1.08e+06 RLU | 43500 RLU | 86400 RLU | 801000 RLU
